Source: patent US9249224B2 (RINAT NEUROSCIENCE CORP., priority 2011, dated 2016)

How the values were obtained:
cyno GHR = assay: Biacore kinetics and affinity, immobilized Fab, cyno GHR analyte, 37° C.; type: binding, cynomolgus monkey; conditions: Fab captured on anti-human kappa surface
Protocol: (§1) The affinity of GHR antibody SS1 Fab to human and cyno GHR was measured on a Biacore™ T200 biosensor (GE Lifesciences™, Piscataway N.J.).
(§2) An anti-human kappa sensor chip was prepared by activating all flow cells of a Biacore™ CM4 sensor chip with a 1:1 (v/v) mixture of 400 mM EDC and 100 mM NHS for 7 minutes, at a flow rate of 10 μL/min. An anti-human kappa reagent (goat F(ab′)2 fragment anti-human kappa, Southern Biotech Catalog #2063-01) was diluted to 50 μg/mL in 10 mM sodium acetate pH 4.5 and injected on all flow cells for 7 minutes at 20 μL/min. All flow cells were blocked with 100 mM ethylenediamine in 150 mM borate buffer pH 8.5 for 7 minutes at 10 μL/min.
(§3) The kinetics assay was run using a methodology with varying dissociation times as described in Katsamba et al., supra. Fabs were captured onto downstream flow cells (flow cells 2, 3 and 4) at 2 μg/mL at a flow rate of 10 μL/min for 2 minutes. Different Fabs were captured on each flow cell. Flow cell 1 was used as a reference surface. […] After the analyte injection, dissociation was monitored for 30 minutes (for the 133 nM and 400 nM GHR cycles) or 60 seconds (all other cycles) followed by regeneration with three 30-second injections of 10 mM glycine pH 1.7. A 6-membered dilution series of GHR was analyzed using this method, where the top concentration was 400 nM and the dilution factor was 3-fold. […]

hGHR-hFc = target: T1, hGHR-hFc (Homo sapiens, UniProt P10912); assay: Biacore kinetics and affinity, immobilized hGHR-hFc, Fab analyte, 37° C.; type: binding; conditions: hGHR-hFc captured on anti-human Fc surface
T1 construct: purchased R&D Systems 1210-GR
Protocol: as §1
as §2, with “anti-human Fc” for “anti-human kappa”, “fragment to human IgG Fc, Cappel” for “fragment anti-human kappa, Southern Biotech”, “Catalog #55053)” for “Catalog #2063-01)”, “to 60” for “to 50”, “pH 5.0” for “pH 4.5”
The kinetics assay was run using a methodology with varying dissociation times as described in Katsamba et al., supra. The hGHR-hFc fusion protein (R&D Systems™ Catalog#1210-GR) was captured onto downstream flow cells at 2 μg/mL at a flow rate of 10 μL/min for 30 seconds, 1 minute and 2 minutes on flow cells 2, 3 and 4, respectively. Flow cell 1 was used as a reference surface. […] After the analyte injection, dissociation was monitored for 30 minutes (400 nM Fab cycle) or 60 seconds (all other cycles) followed by regeneration with two 30-second injections of 75 mM phosphoric acid. A 5-membered dilution series of Fab was analyzed using this method, where the top concentration was 400 nM and the dilution factor was 3-fold. […]

human GHR = target: T2, human GHR (Homo sapiens, UniProt P10912); assay: Biacore kinetics and affinity, immobilized Fab, human GHR analyte, 37° C.; type: binding; conditions: Fab captured on anti-human kappa surface
T2 construct: his-tagged monomers of amino acids 31-235 of the extracellular domain of the human or cyno GHR
T2 sequence (P10912 49-253): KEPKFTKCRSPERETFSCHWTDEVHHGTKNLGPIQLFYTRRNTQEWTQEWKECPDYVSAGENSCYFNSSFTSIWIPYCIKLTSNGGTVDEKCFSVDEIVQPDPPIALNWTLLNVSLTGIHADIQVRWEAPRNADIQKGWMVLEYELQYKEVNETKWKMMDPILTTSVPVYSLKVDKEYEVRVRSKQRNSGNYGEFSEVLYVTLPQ
Protocol: as §1, §2, §3

T1 sequence (P10912 with tags, fused parts or gaps limits assumed): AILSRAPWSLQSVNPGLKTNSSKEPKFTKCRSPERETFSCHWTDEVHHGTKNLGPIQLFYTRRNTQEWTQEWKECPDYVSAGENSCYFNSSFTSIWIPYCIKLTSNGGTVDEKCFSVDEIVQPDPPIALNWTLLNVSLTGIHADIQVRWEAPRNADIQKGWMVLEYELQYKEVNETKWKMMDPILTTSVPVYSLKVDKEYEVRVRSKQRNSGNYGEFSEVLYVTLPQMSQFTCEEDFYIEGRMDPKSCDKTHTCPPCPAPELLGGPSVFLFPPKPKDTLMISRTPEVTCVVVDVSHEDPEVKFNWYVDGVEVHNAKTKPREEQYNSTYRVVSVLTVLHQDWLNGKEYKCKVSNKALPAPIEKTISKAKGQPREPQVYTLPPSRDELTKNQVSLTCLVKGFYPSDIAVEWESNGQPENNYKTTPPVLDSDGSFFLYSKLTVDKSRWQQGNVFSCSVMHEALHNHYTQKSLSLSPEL
Sequence of cyno GHR (as listed by the source): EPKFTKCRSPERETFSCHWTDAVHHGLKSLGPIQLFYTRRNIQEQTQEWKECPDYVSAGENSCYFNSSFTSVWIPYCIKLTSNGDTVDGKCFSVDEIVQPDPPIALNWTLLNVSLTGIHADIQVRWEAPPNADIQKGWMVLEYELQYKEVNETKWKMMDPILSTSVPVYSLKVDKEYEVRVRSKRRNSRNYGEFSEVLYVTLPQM

B1: SS1 Fab: Fab of GHR antibody SS1 (antibody, V domains shown)
VH: EVQLVESGGGLVKPGGSLRLSCAASGFTFSDAWMDWVRQAPGKGLEWVAEIRSKANYHATYYAESVKGRFTISRDDSKNTLYLQMNSLKTEDTAVYYCTLIRDYWGQGTLVTVSS
VL: EIVLTQSPGTLSLSPGERATLSCTATSSVSSSYLNWYQQKPGQAPRLLIYSTSNLASGIPDRFSGSGSGTDFTLTISRLEPEDFAVYYCHQYHRSTPTFGGGTKVEIK
With B1 the “ka” value (cyno GHR) was 182000 M⁻¹ s⁻¹, the “kd” value (cyno GHR) was 0.000576 s⁻¹ and the “ka” value (hGHR-hFc) was 374000 M⁻¹ s⁻¹. For the same molecule, the “kd” value (hGHR-hFc) was 0.000359 s⁻¹, the “ka” value (human GHR) was 138000 M⁻¹ s⁻¹ and the “kd” value (human GHR) was 0.000215 s⁻¹.
